Values quoted from earlier work, collected in publication PMC8542695.
pKd: −log10 of the molar value.

Assays:
[1] = target: non-muscle myosin 2A (NM2A) (Homo sapiens) (UniProt P35579)
[2] = target: annexin A2 (ANXA2) (Homo sapiens) (UniProt P07355)
p53 (Homo sapiens) = p53 (Homo sapiens) (UniProt P04637)
Sequence of p53 (Homo sapiens) (P04637 whole entry): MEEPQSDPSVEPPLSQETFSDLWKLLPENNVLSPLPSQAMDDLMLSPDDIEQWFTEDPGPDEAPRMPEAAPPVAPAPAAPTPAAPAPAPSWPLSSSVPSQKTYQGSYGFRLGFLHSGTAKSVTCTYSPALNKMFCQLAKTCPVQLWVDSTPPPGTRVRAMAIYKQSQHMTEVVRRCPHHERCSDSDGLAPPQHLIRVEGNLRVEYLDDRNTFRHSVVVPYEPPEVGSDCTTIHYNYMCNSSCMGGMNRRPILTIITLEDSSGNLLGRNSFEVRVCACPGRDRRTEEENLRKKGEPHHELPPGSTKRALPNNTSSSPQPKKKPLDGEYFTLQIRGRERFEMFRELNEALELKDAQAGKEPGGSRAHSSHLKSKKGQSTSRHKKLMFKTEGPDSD

Sequence of S100A4 (P26447 2-101): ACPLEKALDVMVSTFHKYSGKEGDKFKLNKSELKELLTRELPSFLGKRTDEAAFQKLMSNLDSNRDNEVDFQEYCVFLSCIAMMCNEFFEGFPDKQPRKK
Sequence of annexin A2 (ANXA2) (Homo sapiens) (P07355 2-339): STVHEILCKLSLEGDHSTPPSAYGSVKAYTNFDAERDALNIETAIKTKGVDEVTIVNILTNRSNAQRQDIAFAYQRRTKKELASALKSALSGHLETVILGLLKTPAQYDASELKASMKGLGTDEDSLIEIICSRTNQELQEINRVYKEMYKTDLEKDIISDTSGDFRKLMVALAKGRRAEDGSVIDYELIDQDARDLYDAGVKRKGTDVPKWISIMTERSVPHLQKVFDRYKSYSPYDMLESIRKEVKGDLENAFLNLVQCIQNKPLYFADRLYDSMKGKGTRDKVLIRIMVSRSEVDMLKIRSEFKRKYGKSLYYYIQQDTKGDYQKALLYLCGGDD
Sequence of non-muscle myosin 2A (NM2A) (Homo sapiens) (P35579 2-1960): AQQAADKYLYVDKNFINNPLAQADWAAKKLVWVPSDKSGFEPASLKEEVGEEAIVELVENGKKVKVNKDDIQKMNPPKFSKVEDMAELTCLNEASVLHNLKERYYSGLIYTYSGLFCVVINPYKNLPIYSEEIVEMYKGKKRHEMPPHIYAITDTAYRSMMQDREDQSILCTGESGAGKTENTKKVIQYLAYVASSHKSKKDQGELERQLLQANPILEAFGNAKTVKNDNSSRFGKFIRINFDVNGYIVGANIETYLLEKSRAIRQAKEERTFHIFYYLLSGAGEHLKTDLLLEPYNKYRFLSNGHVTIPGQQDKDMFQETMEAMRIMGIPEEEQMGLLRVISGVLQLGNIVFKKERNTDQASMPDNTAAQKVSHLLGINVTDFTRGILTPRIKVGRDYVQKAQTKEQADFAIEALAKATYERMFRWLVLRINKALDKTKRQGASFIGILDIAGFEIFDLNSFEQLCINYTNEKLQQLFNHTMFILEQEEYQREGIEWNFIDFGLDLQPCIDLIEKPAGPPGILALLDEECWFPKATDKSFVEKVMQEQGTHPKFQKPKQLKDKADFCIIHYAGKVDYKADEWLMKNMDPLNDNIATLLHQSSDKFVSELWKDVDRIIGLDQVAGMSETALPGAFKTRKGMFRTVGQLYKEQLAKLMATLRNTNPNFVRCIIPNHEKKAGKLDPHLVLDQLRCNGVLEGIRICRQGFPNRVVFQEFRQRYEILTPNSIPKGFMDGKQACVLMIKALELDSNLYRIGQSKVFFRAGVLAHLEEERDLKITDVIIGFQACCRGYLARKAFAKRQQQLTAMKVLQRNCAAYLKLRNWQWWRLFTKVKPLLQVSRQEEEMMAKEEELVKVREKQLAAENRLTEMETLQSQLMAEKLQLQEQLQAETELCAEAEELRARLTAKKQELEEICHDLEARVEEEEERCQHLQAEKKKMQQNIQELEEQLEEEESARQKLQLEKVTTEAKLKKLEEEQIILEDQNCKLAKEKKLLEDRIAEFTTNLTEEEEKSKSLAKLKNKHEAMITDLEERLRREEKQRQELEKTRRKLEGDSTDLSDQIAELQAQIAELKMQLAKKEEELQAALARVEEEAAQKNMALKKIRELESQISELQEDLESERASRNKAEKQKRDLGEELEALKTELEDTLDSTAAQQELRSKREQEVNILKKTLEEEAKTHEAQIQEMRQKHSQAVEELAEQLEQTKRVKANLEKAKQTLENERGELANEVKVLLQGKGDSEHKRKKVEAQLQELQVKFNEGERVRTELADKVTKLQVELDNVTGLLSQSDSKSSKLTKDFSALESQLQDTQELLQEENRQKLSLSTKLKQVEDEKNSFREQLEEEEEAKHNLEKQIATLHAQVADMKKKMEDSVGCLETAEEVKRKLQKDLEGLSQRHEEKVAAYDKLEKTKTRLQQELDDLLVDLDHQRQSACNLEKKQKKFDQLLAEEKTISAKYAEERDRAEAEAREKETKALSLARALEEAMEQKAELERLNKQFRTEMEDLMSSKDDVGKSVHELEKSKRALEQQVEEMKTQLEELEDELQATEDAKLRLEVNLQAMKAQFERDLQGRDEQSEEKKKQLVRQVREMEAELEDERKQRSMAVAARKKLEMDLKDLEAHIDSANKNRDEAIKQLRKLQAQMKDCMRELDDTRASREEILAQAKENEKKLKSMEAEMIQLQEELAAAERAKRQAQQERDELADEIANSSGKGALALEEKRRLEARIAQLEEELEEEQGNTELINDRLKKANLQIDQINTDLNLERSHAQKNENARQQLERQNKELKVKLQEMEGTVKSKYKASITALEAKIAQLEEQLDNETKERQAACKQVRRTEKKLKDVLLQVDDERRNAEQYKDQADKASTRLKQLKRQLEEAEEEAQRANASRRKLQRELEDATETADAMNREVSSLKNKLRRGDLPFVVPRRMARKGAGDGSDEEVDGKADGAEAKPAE

- pKd [1]: > 9.00
- pKd [2]: 5.70
- pKd (p53 (Homo sapiens)): 5.70
Substance: S100A4 (from UniProt P26447)
